Legend:
[1] = tested on: 9464D-GD2 cells; experiment: Cell viability, CellTiter-Glo; assay type: cell-based, mouse; details: 0.1 μM tipifarnib; 24, 48, 72 h
Protocol: 9464D-GD2 cells were seeded in a white, opaque 96-well plate. The following day, cells were treated with increasing doses of tipifarnib, and cell viability was measured at 24, 48 and 72 hours post-treatment using the CellTiter-Glo® Luminescent Cell Viability Assay (Promega, G7573) according to manufacturer's instructions. Microplate luminescence was measured using a CLARIOstar (BMG Labtech) plate reader. All data were normalized to non-treated controls. 9464D cells or 9464D crRab27a cells were plated at a density of 5000 cells/well in a 96-well plate and monitored for confluence using the Incucyte S3 μLive Cell Imaging System (Sartorius). The percent cell confluence was quantified using Incucyte Basic Cell Analysis package (Sartorius).

[2] = tested on: 9464D-GD2 tumors; experiment: 9464D-GD2 syngeneic subcutaneous neuroblastoma model, tumor growth, volume and weight; assay type: in vivo, mouse
Protocol: (§1) All animal studies were performed according to guidelines established by the Institutional Animal Care and Use Committee (IACUC) at the Penn State College of Medicine (Hershey, PA). An immunocompetent mouse model of neuroblastoma was generated by subcutaneously injecting 1×10^6 9464D-GD2 cells in a 50:50 mixture of DMEM and Matrigel (Corning, 354234) into C57BL/6J mice (8- to 10-week-old, JAX 000664) with male and female mice represented at an equal ratio. One week following tumor cell inoculation, mice were randomized into treatment groups. Where indicated, mice were treated twice-weekly by tail-vein injection with PBS (100 μL), dinutuximab ([…] in 100 μL PBS), purified sEVs from 9464D-GD2 cells ([…] in 100 μL PBS), or the combination of dinutuximab and sEVs. Where indicated, tipifarnib (25 mg/kg) or an equivalent volume of vehicle was administered twice daily by oral gavage. Primary tumor growth was monitored by measuring tumor volume using calipers (volume=π(length*width^2)/6). At the experimental endpoint, mice were euthanized, and tumor, blood, spleen and bone marrow were harvested for ex vivo analysis. Endpoint tumor volume was calculated by measuring tumors using calipers (volume=π(length*width*height)/6).

[3] = tested on: tumor-infiltrating NK cells, T-cells and tumor-associated macrophages in 9464D-GD2 tumors; experiment: Flow cytometry of tumor-infiltrating immune cells (NK cells, T-cells, TAMs); assay type: in vivo, mouse
Protocol: (§2) Murine tumors and spleens were harvested at the experimental endpoint and mechanically disassociated. Tumors were further digested with tumor digestion buffer ([…] Collagenase Type I (Thermo Fisher, 17018029) and 2000 Units/ml DNase (Sigma-Aldrich, DN25-100MG) in HBSS buffer at room temperature for 1 hour. Dissociated tumor cells and spleen cells were passed through a 70 μm cell strainer (Falcon BD, 352350), pelleted, and washed once with PBS supplemented with 1% FBS. Red blood cells were lysed with RBC lysis buffer (0.0155 M NH4Cl, 1.2 mM NaHCO3, 0.01 mM Na2EDTA, pH 7.4 in distilled water) for 3 minutes on ice and neutralized with PBS supplemented with 10% FBS. Cells were centrifuged and resuspended in FACS buffer to obtain single cell suspensions.
as §1
For cell surface staining, approximately 1×10^6 cells were stained with pre-mixed antibody cocktail panels (Table 1) in 100 μL FACS buffer (1% FBS, 0.2% NaN3 in PBS) for 30 minutes on ice. Cells were washed twice with FACS buffer and fixed with 2% paraformaldehyde (Fisher Scientific, 50-980-487) for 15 minutes. Fixed cells were washed once with PBS and resuspended in 0.5 mL FACS buffer for flow cytometric analysis using a LSR II or Symphony flow cytometer (BD Biosciences). Compensation was performed using UltraComp eBeads™ compensation beads (Invitrogen). FlowJo™ v10 (FlowJo, LLC) software was used for data analysis.

[4] = tested on: NK cells (NK1.1+CD3-) in blood; experiment: Flow cytometry of blood NK cells of tumor-bearing mice; assay type: in vivo, mouse
Protocol: as §1, with “(volume=π(length*width*height)/6). […]” for “(volume=π(length*width*height)/6).”

[5] = tested on: splenic NK cells; experiment: Flow cytometry of splenic NK cell subpopulations (maturation); assay type: in vivo, mouse
Protocol: as §2
as §1, with “(volume=π(length*width*height)/6). […]” for “(volume=π(length*width*height)/6).”

[6] = day 24, treatment as FIG. 4D (FIG. 5A)
[7] = day 30, treatment as FIG. 1D (FIG. 3C)

Molecule | cytotoxicity (cell viability) [1] | tumor growth (tumor volume over time) ([2]; dinutuximab 1.25 mg/kg and/or 9464D-GD2 sEVs 20 μg, tail vein twice weekly from one week post-inoculation, to day 30, vs PBS (FIG. 1E)) | tumor growth and weight, sEV rescue experiment ([2]; dinutuximab and/or tipifarnib with or without sEVs, day 24 (FIG. 6B-D)) | TAM population (CD11b+F4/80+) [3, 6] | tumor-infiltrating NK cells (NK1.1+CD3-) [3, 6] | tumor-infiltrating T-cells (CD3+NK1.1-) [3, 6] | tumor-associated macrophage (TAM) population (CD11b+F4/80+) ([3]; day 30, treatment as FIG. 1D (FIG. 2E bottom)) | tumor-infiltrating NK cell population (NK1.1+CD3-) ([3]; day 30, treatment as FIG. 1D (FIG. 2E top)) | level of circulating NK cells (mobilization) ([4]; day 24, treatment as FIG. 4D (FIG. 5B)) | percentage of serum (blood) NK cells, NK cell mobilization ([4]; day 30, treatment as FIG. 1D (FIG. 2F)) | percentage of mature NK cells in the spleen (CD27-CD11b+) ([5]; day 24, treatment as FIG. 4D, vs control or tipifarnib alone (FIG. 5C)) | percentage of mature splenic NK cells (CD27-CD11b+) [5, 7] | percentage of splenic NK cells with immature phenotype (CD27+CD11b-) [5, 7]
Cn1cncc1[C@@](N)(c1ccc(Cl)cc1)c1ccc2c(c1)c(-c1cccc(Cl)c1)cc(=O)n2C [tipifarnib] | absence of cytotoxicity |  |  |  |  |  |  |  |  |  |  |  | 
dinutuximab (antibody, chains of the INN, looked up, V domains shown, chimeric monoclonal antibody against the disialoganglioside GD2) VH: EVQLLQSGPELEKPGASVMISCKASGSSFTGYNMNWVRQNIGKSLEWIGAIDPYYGGTSYNQKFKGRATLTVDKSSSTAYMHLKSLTSEDSAVYYCVSGMEYWGQGTSVTVSS VL: EIVMTQSPATLSVSPGERATLSCRSSQSLVHRNGNTYLHWYLQKPGQSPKLLIHKVSNRFSGVPDRFSGSGSGTDFTLKISRVEAEDLGVYFCSQSTHVPPLTFGAGTKLELK |  | dramatically suppressed tumor growth | mild anti-tumor activity alone | decreasing TAMs | enhancing the mobilization of NK cells and percentages of tumor-infiltrating NK cells and T-cells | enhancing the mobilization of NK cells and percentages of tumor-infiltrating NK cells and T-cells | significantly decreased the TAM population | significantly increased the tumor-infiltrating NK cell population | enhancing the mobilization of NK cells | significant increase in the percentage of serum NK cells | significantly increased the percentage of mature NK cells in the spleen | increased the percentage of mature splenic NK cells | significantly decreased the percentage of splenic NK cells with an immature phenotype
